Test results published in US20250262210A1 (TRUSTEES OF COLUMBIA UNIVERSITY IN THE CITY OF NEW YORK, published 2025).

Key:
Assay in all cases: IP/MS, LZTR1 R810W-FLAG, U87
[1] = target: KIF1B (human, UniProt O60333 2-1816, limits assumed)
Summary of the method: (§1)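 Extracted peptides in 3% acetonitrile/0.1% formic acid ran on a 50 cm C18 column into an Orbitrap Fusion, with MaxQuant identification and spectral counting.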

[2] = target: T1, MED24 (human, UniProt O75448 1-989, limits assumed)
T1 sequence (looked up): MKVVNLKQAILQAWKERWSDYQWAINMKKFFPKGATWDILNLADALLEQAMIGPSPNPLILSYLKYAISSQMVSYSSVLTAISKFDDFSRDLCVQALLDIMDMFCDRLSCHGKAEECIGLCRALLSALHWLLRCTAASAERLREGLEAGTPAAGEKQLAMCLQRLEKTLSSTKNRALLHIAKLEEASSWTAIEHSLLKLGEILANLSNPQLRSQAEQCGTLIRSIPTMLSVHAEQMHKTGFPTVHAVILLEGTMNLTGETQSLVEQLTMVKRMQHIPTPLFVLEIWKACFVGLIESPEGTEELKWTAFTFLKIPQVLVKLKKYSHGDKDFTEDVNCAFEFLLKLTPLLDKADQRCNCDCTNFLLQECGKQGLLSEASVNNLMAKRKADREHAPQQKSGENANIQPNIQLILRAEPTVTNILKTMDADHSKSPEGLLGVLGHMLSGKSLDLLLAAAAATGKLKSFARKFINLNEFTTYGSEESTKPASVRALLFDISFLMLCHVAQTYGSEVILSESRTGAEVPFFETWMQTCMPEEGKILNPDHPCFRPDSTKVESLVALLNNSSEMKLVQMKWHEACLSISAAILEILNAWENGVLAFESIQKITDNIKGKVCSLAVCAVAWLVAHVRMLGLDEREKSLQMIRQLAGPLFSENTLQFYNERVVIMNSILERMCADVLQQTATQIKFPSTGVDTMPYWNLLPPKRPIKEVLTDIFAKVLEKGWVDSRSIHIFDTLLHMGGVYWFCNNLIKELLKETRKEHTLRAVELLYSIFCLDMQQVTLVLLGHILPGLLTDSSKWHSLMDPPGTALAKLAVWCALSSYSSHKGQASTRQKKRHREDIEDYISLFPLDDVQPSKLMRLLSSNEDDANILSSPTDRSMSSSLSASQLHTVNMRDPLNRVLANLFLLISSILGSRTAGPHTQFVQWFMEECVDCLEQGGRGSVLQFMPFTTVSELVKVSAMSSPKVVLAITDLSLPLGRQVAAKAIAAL
Summary of the method: as §1

[3] = target: MTR (human, UniProt Q99707 1-1265, limits assumed)
Summary of the method: as §1

[4] = target: BUB1 (human, UniProt O43683 1-1085, limits assumed)
Summary of the method: as §1

[5] = target: CA9 (human, UniProt Q16790 38-459)
Summary of the method: as §1

Measured: binding result

MTR, sequence (Q99707 whole entry): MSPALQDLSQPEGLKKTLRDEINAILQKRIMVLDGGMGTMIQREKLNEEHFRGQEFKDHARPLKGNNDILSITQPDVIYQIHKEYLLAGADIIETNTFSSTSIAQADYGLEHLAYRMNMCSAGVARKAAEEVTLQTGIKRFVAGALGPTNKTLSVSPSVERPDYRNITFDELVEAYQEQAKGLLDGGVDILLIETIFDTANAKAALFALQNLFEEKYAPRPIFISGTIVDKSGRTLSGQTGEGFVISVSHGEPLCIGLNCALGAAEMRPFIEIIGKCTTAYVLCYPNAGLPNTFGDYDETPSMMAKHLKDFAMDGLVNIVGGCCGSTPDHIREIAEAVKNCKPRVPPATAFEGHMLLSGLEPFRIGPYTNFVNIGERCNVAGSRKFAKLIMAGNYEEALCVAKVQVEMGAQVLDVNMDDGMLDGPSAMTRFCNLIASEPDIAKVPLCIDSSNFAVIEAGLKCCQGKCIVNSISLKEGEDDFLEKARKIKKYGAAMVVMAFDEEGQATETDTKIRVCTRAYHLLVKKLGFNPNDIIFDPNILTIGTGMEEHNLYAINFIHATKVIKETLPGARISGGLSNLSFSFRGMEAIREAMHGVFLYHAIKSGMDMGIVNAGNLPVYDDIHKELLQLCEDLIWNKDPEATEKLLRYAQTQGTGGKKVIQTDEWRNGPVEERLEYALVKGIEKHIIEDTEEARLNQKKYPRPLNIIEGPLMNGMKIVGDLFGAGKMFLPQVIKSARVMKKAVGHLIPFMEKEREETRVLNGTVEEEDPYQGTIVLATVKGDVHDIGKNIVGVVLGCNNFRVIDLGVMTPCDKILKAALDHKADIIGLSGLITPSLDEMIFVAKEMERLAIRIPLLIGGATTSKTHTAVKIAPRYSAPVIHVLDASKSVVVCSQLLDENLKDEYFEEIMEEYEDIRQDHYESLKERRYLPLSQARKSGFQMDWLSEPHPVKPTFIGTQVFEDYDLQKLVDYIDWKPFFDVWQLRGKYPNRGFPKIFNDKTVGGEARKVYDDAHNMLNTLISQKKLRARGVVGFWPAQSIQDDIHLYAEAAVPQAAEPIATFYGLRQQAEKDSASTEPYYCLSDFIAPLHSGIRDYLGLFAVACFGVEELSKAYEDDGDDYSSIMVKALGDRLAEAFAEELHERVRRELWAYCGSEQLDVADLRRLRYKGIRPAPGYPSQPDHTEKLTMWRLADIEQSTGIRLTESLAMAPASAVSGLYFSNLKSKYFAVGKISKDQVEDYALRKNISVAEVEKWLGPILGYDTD
BUB1, sequence (O43683 whole entry): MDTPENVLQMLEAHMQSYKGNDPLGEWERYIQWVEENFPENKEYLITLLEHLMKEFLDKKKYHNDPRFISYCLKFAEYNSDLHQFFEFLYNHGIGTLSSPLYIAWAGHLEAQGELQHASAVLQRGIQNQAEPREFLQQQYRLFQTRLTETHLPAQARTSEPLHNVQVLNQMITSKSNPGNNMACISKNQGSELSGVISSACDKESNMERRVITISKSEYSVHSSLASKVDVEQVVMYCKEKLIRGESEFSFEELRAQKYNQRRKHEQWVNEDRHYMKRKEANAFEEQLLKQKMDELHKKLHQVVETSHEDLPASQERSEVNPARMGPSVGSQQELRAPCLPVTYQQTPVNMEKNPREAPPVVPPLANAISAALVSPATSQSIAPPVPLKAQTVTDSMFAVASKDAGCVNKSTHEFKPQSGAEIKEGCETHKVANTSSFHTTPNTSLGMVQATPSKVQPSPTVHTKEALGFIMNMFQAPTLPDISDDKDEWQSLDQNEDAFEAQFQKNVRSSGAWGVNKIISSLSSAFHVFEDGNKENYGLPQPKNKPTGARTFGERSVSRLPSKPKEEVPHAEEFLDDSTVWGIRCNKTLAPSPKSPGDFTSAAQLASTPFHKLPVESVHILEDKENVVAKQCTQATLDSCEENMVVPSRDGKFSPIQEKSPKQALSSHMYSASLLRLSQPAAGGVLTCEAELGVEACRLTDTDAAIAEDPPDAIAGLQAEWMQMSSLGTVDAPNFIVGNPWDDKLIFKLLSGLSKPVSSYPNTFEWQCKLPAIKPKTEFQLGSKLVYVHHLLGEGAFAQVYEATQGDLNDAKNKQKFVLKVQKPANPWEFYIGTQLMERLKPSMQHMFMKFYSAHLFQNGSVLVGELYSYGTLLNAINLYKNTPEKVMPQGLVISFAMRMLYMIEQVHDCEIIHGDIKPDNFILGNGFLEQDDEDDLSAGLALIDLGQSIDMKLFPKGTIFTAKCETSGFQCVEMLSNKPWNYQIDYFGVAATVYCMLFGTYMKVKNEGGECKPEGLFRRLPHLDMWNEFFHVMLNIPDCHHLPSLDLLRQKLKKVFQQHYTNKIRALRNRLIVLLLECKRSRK
KIF1B, sequence (O60333 2-1816 limits assumed): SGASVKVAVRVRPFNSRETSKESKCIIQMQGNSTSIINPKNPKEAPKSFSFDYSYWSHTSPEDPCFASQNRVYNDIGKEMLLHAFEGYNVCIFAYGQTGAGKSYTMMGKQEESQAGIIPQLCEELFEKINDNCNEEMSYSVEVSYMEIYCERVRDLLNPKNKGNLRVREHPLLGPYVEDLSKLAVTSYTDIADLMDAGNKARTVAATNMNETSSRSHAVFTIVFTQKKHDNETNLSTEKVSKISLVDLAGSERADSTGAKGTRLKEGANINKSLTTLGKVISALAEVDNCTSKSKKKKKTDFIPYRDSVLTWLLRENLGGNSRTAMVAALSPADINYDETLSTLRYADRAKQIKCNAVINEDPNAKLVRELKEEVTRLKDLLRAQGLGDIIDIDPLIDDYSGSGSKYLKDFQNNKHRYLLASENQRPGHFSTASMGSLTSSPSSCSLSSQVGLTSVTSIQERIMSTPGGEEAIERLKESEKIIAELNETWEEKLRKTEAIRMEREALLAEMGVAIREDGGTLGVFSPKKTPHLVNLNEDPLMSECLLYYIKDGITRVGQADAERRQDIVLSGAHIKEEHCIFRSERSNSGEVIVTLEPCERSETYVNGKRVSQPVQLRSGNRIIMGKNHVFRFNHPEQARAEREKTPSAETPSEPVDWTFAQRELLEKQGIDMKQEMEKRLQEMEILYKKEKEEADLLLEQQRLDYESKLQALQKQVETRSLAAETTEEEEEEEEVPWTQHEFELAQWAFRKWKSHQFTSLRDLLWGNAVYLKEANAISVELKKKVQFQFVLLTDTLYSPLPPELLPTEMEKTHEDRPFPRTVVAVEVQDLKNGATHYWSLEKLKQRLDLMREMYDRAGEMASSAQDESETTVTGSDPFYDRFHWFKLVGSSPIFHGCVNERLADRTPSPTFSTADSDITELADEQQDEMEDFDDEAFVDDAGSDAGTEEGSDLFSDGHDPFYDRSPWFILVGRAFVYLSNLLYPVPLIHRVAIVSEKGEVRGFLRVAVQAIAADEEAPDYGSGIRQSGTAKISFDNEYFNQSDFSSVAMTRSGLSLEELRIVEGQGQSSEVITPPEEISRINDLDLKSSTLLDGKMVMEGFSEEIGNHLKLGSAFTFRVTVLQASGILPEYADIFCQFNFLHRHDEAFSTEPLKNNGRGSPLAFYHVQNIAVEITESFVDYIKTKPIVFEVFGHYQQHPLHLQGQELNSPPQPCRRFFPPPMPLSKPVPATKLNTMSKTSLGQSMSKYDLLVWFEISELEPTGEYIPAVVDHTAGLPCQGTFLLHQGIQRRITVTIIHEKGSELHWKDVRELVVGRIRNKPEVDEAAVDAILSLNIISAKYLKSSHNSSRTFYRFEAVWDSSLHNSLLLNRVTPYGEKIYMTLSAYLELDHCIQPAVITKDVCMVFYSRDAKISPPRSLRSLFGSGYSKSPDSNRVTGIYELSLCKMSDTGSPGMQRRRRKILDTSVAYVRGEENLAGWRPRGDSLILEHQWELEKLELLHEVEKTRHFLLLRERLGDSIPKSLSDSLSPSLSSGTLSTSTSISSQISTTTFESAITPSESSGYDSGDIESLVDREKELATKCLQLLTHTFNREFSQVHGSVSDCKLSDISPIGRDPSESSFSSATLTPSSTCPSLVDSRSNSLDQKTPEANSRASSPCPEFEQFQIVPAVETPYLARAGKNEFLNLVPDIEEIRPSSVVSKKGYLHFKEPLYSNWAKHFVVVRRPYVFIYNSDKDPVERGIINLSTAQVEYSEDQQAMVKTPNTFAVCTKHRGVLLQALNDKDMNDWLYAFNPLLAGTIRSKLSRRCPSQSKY

B1: LZTR1 R810W-FLAG (other, human, UniProt Q8N653 1-840, looked up)
chain: MAGPGSTGGQIGAAALAGGARSKVAPSVDFDHSCSDSVEYLTLNFGPFETVHRWRRLPPCDEFVGARRSKHTVVAYKDAIYVFGGDNGKTMLNDLLRFDVKDCSWCRAFTTGTPPAPRYHHSAVVYGSSMFVFGGYTGDIYSNSNLKNKNDLFEYKFATGQWTEWKIEGRLPVARSAHGATVYSDKLWIFAGYDGNARLNDMWTIGLQDRELTCWEEVAQSGEIPPSCCNFPVAVCRDKMFVFSGQSGAKITNNLFQFEFKDKTWTRIPTEHLLRGSPPPPQRRYGHTMVAFDRHLYVFGGAADNTLPNELHCYDVDFQTWEVVQPSSDSEVGGAEVPERACASEEVPTLTYEERVGFKKSRDVFGLDFGTTSAKQPTQPASELPSGRLFHAAAVISDAMYIFGGTVDNNIRSGEMYRFQFSCYPKCTLHEDYGRLWESRQFCDVEFVLGEKEECVQGHVAIVTARSRWLRRKITQARERLAQKLEQEAAPVPREAPGVAAGGARPPLLHVAIREAEARPFEVLMQFLYTDKIKYPRKGHVEDVLLIMDVYKLALSFQLCRLEQLCRQYIEASVDLQNVLVVCESAARLQLSQLKEHCLNFVVKESHFNQVIMMKEFERLSSPLIVEIVRRKQQPPPRTPLDQPVDIGTSLIQDMKAYLEGAGAEFCDITLLLDGHPRPAHKAILAARSSYFEAMFRSFMPEDGQVNISIGEMVPSRQAFESMLRYIYYGEVNMPPEDSLYLFAAPYYYGFYNNRLQAYCKQNLEMNVTVQNVLQILEAADKTQALDMKRHCLHIIVHQFTKVSKLPTLWSLSQQLLLDIIDSLASHISDKQCAELGADI
notes: Stably expressed in U87 cells by lentivirus; also called LZTR1-FLAG-R810W; LZTR1 RW; not shown: FLAG tag
binds: all assays above
